# According to patent US7803757B2, “Peptides based on the sequence of human lactoferrin and their use” (PharmaSurgics in Sweden AB, priority 1998, dated 2010):
# Key:
# C. albicans (ATCC 64549) = assay: microbe, parasite or virus in culture; conditions: C. albicans ATCC 64549, 2×10^5 cells/ml, BHI diluted 1/100
# Protocol: In the examples, the minimal microbicidal concentrations (MMC) and minimal inhibitory concentrations (MIC) were determined as follows, unless otherwise specified in the examples. Bacterial or fungal strains were cultured in BHI medium over night at 37° C. A volume of the culture was transferred to a new tube with BHI and incubated for two more hours. Thereafter the cells were spun down and the pellet was suspended in BHI medium diluted 1/100 (1% BHI). The concentration of bacterial or fungal cells was spectrophotometrically determined at 650 nm. The microbial concentrations were also determined by viable counts. Peptides serially diluted in 1% BHI by twofold or tenfold steps were added in triplicate to the wells of a microtiterplate (200 μl per well). The bacterial or fungal cell solutions were added in 10 μl volumes to give a final concentration of approximately 1-5×10^5 cells per ml in the well. The microplate was incubated at 37° C. in a humid chamber for two hours. […] The microplate was incubated for another 20 hours at 37° C. and thereafter analysed spectrophotometrically at 650 nm in a microplate reader (Emax, Molecular Devices, USA). […] The MIC value was defined as the concentration giving no increase in the absorbance value above the background level after 20 hours of incubation. […]
# Candida albicans [1] = assay: fungicidal activity against Candida albicans, comparison with EP-A-0 629 347 peptides (Example 7); format: cell-based; conditions: C. albicans, I (tenfold steps)
# Protocol: In this example an in vitro test was performed to compare the bactericidal and fungicidal activity of the peptides according to the invention with peptides described in EP-A-0 629 347. The peptide according to the invention used was peptide 4, and the peptides according to EP-A-0 629 347 called Morinaga 10, Morinaga 11, Morinaga 12, and Morinaga 13.
# The peptides were incubated with E. coli O14 and Candida albicans. Two concentrations of C. albicans yeast cells were tested, 5·10^6 and 5·10^3 per ml. Different concentrations of the peptides were tested.
# After the incubation, samples were taken for bacterial plating. Serial dilutions of tenfold steps were used in the experiments marked with I in table 5 and of twofold steps in the experiments marked with II.
# [2] = test system: LPS-induced IL-6 response in a monocytic cell line (THP-1); assay: inhibition of LPS-induced IL-6 response in THP-1 cells (Example 5); format: cell-based; conditions: IL-6 response in THP-1 cells, agent added 30 minutes after LPS
# Protocol: In this example an in vitro test was performed to study the anti-inflammatory activity of the peptides according to the invention. More precisely, the inhibitory effect of the peptides according to the invention on the LPS-induced IL-6 response in a monocytic cell line (THP-1) was studied and compared to the effect of human lactoferrin by use of the method described by I. Mattsby-Baltzer et al., Pediatr. Res. 40:257-262, 1996. The IL-6 response in the THP-1 cells was induced by addition of LPS. hLF, peptide 3 and peptide 4, respectively, were added 30 minutes after LPS.
# E. coli O14 = assay: bactericidal activity, incubation with E. coli O14 (Example 3, exp. I and III); format: cell-based
# Protocol: (§1) Human lactoferrin (hLF), peptide 3, and peptide 4, respectively, were incubated with two different strains of E. coli, E. coli O14 (experiment I) and O6K5 (experiment II), in diluted growth medium ( 1/100 BHI—brain heart infusion) for 2 hours. The peptides were also incubated with E. coli O14 in 0.05 mM KCl (pH 7) without any growth medium (experiment III). Different concentrations of the peptides were tested.
# (§2) After the incubation, samples were taken for bacterial plating. Serial dilutions of five- and fourfold steps were used in experiments I and II, respectively, and of twofold steps in experiment III.
# (§3) The concentrations of the different peptides required for killing 100% (experiments I and II) or 90% (experiment III) of the bacteria are given in table 2.
# E. coli O6K5 [3] = assay: bactericidal activity, incubation with E. coli O6K5 (Example 3, exp. II); format: cell-based; conditions: Exp. II: 100% killing, E. coli O6K5, 1/100 BHI, 2 hours
# Protocol: as §1, §2, §3
# E. coli O6K5 [4] = assay: urinary tract infection in mice, bacteria (CFU) in kidney (Example 6); format: in vivo; conditions: Exp II, mouse strain C3H/Tif, 500 μg per mouse orally 30 minutes after instillation, 24 hours
# Protocol: E. coli O6K5 was instilled into the urinary bladder of mice. 30 minutes after instillation the different agents specified in table 5 were administered orally in an amount of 500 μg per mouse and 24 hours after instillation the number of bacteria (CFU) present in bladder and in kidney was determined.
# The control group consisted of 10 animals in experiment I and of 23 animals in experiment II. The animals in the control groups were given tap water instead of peptide or hLF.
# Candida krusei = assay: fungicidal activity against Candida krusei strains (Example 4); format: cell-based; conditions: Exp. I
# Protocol: (§4) In this example the fungicidal activity of the peptides according to the invention was tested and compared to the fungicidal activity of human lactoferrin. Different concentrations of hLF, peptide 3 and peptide 4 were incubated with different strains of Candida albicans and Candida krusei during 1-2 hours at 37° C. in 0.05 mM KCl at pH 7.0 at two different occasions—experiment I and II, respectively. After incubation samples were taken for plating on Saboroud plates.
# Candida albicans [5] = assay: fungicidal activity against Candida albicans strains (Example 4); format: cell-based
# Protocol: as §4
molecule,measurement,setting,value
"human lactoferrin (protein, UniProt P02788 20-710, looked up) Lactotransferrin: GRRRSVQWCAVSQPEATKCFQWQRNMRKVRGPPVSCIKRDSPIQCIQAIAENRADAVTLDGGFIYEAGLAPYKLRPVAAEVYGTERQPRTHYYAVAVVKKGGSFQLNELQGLKSCHTGLRRTAGWNVPIGTLRPFLNWTGPPEPIEAAVARFFSASCVPGADKGQFPNLCRLCAGTGENKCAFSSQEPYFSYSGAFKCLRDGAGDVAFIRESTVFEDLSDEAERDEYELLCPDNTRKPVDKFKDCHLARVPSHAVVARSVNGKEDAIWNLLRQAQEKFGKDKSPKFQLFGSPSGQKDLLFKDSAIGFSRVPPRIDSGLYLGSGYFTAIQNLRKSEEEVAARRARVVWCAVGEQELRKCNQWSGLSEGSVTCSSASTTEDCIALVLKGEADAMSLDGGYVYTAGKCGLVPVLAENYKSQQSSDPDPNCVDRPVEGYLAVAVVRRSDTSLTWNSVKGKKSCHTAVDRTAGWNIPMGLLFNQTGSCKFDEYFSQSCAPGSDPRSNLCALCIGDEQGENKCVPNSNERYYGYTGAFRCLAENAGDVAFVKDVTVLQNTDGNNNEAWAKDLKLADFALLCLDGKRKPVTEARSCHLAMAPNHAVVSRMDKVERLKQVLLHQQAKFGRNGSDCPDKFCLFQSETKNLLFNDNTECLARLHGKTTYEKYLGPQYVAGITNLKKCSTSPLLEACEFLRK",MIC,C. albicans (ATCC 64549),1000 µg/mL
same,MMC99%,C. albicans (ATCC 64549),>1000 µg/mL
same,Concentration of agent for 100% killing,Candida albicans [1]; 5 · 10^3 yeast cells per ml,>2000 µg/mL
same,Concentration of agent for 100% killing,Candida albicans [1]; 5 · 10^6 yeast cells per ml,>1000 µg/mL
same,% inhibition of LPS response,[2],15%
same,Concentration of agent for 100%/90% killing,"E. coli O14; Exp. I: 100% killing, E. coli O14, 1/100 BHI, 2 hours",400 µg/mL
same,Concentration of agent for 100%/90% killing,"E. coli O14; Exp. III: 90% killing, E. coli O14, 0.05 mM KCl (pH 7) without growth medium",>4000 µg/mL
same,Concentration of agent for 100%/90% killing,E. coli O6K5 [3],2000 µg/mL
same,"Statistical comparison of treatment group with control group of the number of bacteria, CFU, present in kidney (p, Mann-Whitney)",E. coli O6K5 [4],p = 0.006
same,Concentration of agent for 99% killing,"Candida krusei; C. krusei CCUG 969, 0.05 mM KCl pH 7.0",25 µg/mL
same,Concentration of agent for 99% killing,"Candida krusei; C. krusei CCUG 35849, 0.05 mM KCl pH 7.0",12.5 µg/mL
same,Concentration of agent for 99% killing,"Candida albicans [5]; Exp. I, C. albicans ATCC 64549, 0.05 mM KCl pH 7.0, 1-2 hours 37° C.",>50 µg/mL
same,Concentration of agent for 99% killing,"Candida albicans [5]; Exp. I, C. albicans CCUG 90028, 0.05 mM KCl pH 7.0",>50 µg/mL
same,Concentration of agent for 99% killing,"Candida albicans [5]; Exp. II, C. albicans ATCC 64549, 0.05 mM KCl pH 7.0",>200 µg/mL
same,Concentration of agent for 99% killing,"Candida albicans [5]; Exp. II, C. albicans CCUG 599, 0.05 mM KCl pH 7.0",>200 µg/mL
same,Concentration of agent for 99% killing,"Candida albicans [5]; Exp. II, C. albicans CCUG 1759, 0.05 mM KCl pH 7.0",>200 µg/mL
